Consider one substance from publication PMC2323294.

This assay has as its target recombinant human gC1qR/HABP1/p32 (mature, amino acids 74-282) (human) (UniProt Q07021). Briefly: SEC; gel permeation chromatography of purified recombinant gC1qR/HABP1 on a Superdex 200 HR10/30 column, against molecular weight standards. Background: SEC sorts molecules by how far they enter the pores of the column.

“And” between values parts separate entries of the source, which are not always exact repeats. Equal values may be shown once.

Take “recombinant human gC1qR/HABP1/p32 (mature, amino acids 74-282) (from UniProt Q07021 74-282) (natural protein; other documents disagree on this pair)”: the stoichiometry N (as a rule, the number of molecules, sites or subunits per partner or assembly) was 3 and 2.
